From US20140235820A1, “METHODS AND COMPOSITIONS FOR MODULATING THE Wnt PATHWAY” (Genentech, Inc., priority 2010, published 2014)
“Also recorded” adds a separate entry of the source.

T1: LRP6 E3E4 (Homo sapiens, UniProt O75581)
T1 construct: construct E3E4 amino acids E631-Q1253 of LPR6; made in house; host or cells: Tni insect cells (baculovirus, secreted)
T1 sequence (O75581 631-1253): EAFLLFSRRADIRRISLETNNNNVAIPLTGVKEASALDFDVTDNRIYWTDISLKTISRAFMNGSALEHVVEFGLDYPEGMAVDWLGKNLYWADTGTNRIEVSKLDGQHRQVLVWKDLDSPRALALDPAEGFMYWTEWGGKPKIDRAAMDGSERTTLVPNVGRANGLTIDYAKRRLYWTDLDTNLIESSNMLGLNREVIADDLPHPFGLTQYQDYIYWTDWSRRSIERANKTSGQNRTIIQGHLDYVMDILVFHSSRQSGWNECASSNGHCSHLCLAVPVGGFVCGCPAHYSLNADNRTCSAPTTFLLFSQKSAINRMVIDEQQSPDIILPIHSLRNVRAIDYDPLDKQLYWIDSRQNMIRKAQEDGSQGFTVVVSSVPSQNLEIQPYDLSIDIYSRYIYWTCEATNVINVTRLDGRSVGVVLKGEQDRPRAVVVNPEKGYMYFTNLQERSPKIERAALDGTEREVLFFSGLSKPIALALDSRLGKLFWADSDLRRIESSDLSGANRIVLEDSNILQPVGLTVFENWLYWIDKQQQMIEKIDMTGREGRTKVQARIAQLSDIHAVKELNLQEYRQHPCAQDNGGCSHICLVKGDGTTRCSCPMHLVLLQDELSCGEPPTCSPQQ

T2: LRP6 E1E4 (Homo sapiens, UniProt O75581)
T2 construct: construct E1E4-amino acids A20-Q1253 of LPR6; made in house; host or cells: Tni insect cells (baculovirus, secreted)
T2 sequence (O75581 20-1253): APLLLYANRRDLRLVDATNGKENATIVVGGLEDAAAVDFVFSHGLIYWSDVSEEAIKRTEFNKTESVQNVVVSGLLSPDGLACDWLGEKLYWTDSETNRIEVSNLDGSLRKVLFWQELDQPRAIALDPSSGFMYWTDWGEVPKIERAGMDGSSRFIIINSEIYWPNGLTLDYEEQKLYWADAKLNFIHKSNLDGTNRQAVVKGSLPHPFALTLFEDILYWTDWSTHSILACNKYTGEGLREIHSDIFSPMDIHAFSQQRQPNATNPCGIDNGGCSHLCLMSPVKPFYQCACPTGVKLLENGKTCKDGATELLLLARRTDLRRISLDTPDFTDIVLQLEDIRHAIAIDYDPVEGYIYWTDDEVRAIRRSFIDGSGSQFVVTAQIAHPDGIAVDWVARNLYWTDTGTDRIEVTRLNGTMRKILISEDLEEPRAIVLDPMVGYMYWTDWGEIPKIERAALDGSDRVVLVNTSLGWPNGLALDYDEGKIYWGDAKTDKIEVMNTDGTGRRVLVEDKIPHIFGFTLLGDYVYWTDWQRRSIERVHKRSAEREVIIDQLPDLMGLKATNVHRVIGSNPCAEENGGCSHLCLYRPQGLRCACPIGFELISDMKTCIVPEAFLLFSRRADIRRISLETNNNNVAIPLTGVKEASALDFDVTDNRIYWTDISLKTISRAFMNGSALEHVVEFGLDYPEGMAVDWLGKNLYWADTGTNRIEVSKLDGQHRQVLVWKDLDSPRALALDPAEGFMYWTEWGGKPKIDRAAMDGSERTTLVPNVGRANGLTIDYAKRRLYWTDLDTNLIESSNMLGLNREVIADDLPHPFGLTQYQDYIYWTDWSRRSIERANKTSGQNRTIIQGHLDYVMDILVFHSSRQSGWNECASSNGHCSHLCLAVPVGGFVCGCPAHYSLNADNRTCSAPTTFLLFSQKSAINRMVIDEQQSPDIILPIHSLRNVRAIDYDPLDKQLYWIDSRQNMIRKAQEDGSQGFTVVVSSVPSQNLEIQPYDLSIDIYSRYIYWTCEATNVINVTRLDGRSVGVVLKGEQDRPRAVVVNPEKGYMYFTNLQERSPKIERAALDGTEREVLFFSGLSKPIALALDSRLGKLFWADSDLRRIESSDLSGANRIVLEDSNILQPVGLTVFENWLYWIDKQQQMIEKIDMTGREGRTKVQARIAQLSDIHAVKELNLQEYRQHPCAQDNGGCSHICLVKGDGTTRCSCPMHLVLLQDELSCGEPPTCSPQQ


Experiments:
LRP6 E3E4 = target: T1, LRP6 E3E4; assay: Biolayer interferometry binding to LRP6 E3E4
Method in brief: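 Biotinylated human LRP6 ectodomain constructs (β-propeller-EGF units, e.g. E2 D235–E631, E1E2 A20–E631, E3E4 E631–Q1253) were loaded on streptavidin sensors in pH 8 Tris, 300 mM NaCl, 5% glycerol, 0.05% Triton X-100, then exposed to Dkks or sclerostin. Kd came from steady-state analysis, averaging ≥3 concentrations (R²>0.96).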

LRP6 E1E4 = target: T2, LRP6 E1E4; assay: Biolayer interferometry binding to LRP6 E1E4
Method: Binding kinetics were measured by biolayer interferometry using an Octet Red instrument (ForteBio) as previously described (11). Streptavidin (SA) biosensors were loaded with biotinylated hLRP6 in 50 mMTris, pH 8, 300 mM NaCl, 5% (v/v) glycerol, and 0.05% (w/v) Triton X-100. The loaded biosensors were washed in the same buffer before carrying out association and dissociation measurements for the indicated times. The Kd of each interaction was determined using steady state-analysis through the Octet Red software v6.3. Each reported value represents an average of three or more experiments at different concentrations, with a fitted experimental curve for which the square of the correlation coefficient (R^2) is above 0.96.
The interaction of the different Dkks and sclerostin with various domains of LRP6 was measured using a biolayer interferometry assay (11). Purified receptors contained individual β-propeller-EGF-like units (E1, E2, or E4), two β-propellers (E1E2 or E3E4), or four β-propellers (E1E4))—as follows:
Human LRP6: construct E1E4-amino acids A20-Q1253 of LPR6; construct E1E2-amino acids A20-E631 of LPR6; construct E3E4 amino acids E631-Q1253 of LPR6; construct E1-amino acids A20-D325 of LPR6; construct E2-amino acids […]-E631 of LPR6; construct E4-T933-Q1253. The individual LRP6 β-propeller E3 could not be expressed.

Row | binding to LRP6 E1E4 (in words) (LRP6 E1E4) | Molecule | binding to LRP6 E3E4 (in words) (LRP6 E3E4)
1 | retain binding | Dkk1 Ile42Glu (ligand, human, UniProt O94907 32-266, looked up, also called Dkk1 I42E) TLNSVLNSNAEKNLPPPLGGAAGHPGSAVSAAPGILYPGGNKYQTIDNYQPYPCAEDEECGTDEYCASPTRGGDAGVQICLACRKRRKRCMRHAMCCPGNYCKNGICVSSDQNHFRGEIEETITESFGNDHSTLDGYSRRTTLSSKMYHTKGQEGSVCLRSSDCASGLCCARHFWSKICKPVLKEGQVCTKHRRKGSHGLEIFQRCYCGEGLSCRIQKDHHQASNSSRLHTCQRH | not to E3E4
2 | retain binding | Dkk1 K211E (ligand, human, UniProt O94907 32-266, looked up, also called Dkk1 Lys211Glu) TLNSVLNSNAIKNLPPPLGGAAGHPGSAVSAAPGILYPGGNKYQTIDNYQPYPCAEDEECGTDEYCASPTRGGDAGVQICLACRKRRKRCMRHAMCCPGNYCKNGICVSSDQNHFRGEIEETITESFGNDHSTLDGYSRRTTLSSKMYHTKGQEGSVCLRSSDCASGLCCARHFWSKICEPVLKEGQVCTKHRRKGSHGLEIFQRCYCGEGLSCRIQKDHHQASNSSRLHTCQRH | interfered with binding; also recorded: affect binding
